Among the data in US20050058983A1 are ND50 values, retold here.

The target in the assay is HIVSF162 Env on pseudotyped virions (HIV-1 SF162) (UniProt P19550). In words: cell-based or functional assay.

Consider human Mab 697D (antibody), for which the ND50 is 80 µg/mL.
